This note sets out measurements from US7943296B2, “Methods of screening using a natriuretic peptide receptor” (Oregon Health & Science University, priority 2005, dated 2011).

In experiment [1] the target is T1, NPRA (Rattus norvegicus, UniProt P18910).
T1 construct: endogenous in cells; host or cells: primary neonatal rat cardiac fibroblasts, transfected with insertless vector or sNRF^(806-900)
T1 sequence (P18910 29-1057): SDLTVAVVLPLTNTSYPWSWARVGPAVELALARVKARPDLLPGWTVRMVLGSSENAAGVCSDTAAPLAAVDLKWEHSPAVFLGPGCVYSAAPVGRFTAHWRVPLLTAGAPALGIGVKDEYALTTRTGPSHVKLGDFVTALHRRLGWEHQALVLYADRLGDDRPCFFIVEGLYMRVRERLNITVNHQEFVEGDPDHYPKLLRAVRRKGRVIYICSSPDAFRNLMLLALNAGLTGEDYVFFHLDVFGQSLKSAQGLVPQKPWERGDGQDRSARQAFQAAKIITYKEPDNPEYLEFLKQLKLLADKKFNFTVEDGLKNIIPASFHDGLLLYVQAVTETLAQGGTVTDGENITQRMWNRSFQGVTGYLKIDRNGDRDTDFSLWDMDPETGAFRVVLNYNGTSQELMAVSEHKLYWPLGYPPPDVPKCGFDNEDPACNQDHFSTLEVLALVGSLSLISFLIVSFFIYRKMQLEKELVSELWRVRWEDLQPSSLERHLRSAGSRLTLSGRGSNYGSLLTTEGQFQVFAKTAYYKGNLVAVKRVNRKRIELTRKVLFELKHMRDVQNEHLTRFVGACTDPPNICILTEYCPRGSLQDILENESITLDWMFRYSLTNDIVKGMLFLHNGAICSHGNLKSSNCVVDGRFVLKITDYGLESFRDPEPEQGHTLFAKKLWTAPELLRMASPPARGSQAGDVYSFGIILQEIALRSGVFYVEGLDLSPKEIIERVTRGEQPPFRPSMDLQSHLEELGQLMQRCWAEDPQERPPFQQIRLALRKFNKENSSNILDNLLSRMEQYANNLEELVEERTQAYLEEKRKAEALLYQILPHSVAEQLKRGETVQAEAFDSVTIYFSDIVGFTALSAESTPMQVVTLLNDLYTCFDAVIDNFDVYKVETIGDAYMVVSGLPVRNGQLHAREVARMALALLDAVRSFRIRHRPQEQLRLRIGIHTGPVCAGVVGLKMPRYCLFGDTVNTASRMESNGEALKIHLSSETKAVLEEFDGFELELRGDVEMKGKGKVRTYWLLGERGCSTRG
The experiment can be described thus: Total cGMP by enzyme immunoassay in NP-treated CFs. The format is cell-based. The settings on record: fragment expressed alone, no ANP; 100 μM IBMX. As to the method:
The ability of sNRF^(806-900) to reduce or inhibit downstream effects by modulating the intrinsic guanylyl cyclase activity of NPRA, was determined by measuring total cGMP levels in NP-treated CFs. CFs were transfected with insertless vector or sNRF^(806-900) as described in Example 7 and treated with ANP (100 nM) for 15 minutes. cGMP concentration was determined by enzyme immunoassay using a commercial kit (Enzyme immunoassay Biotrak EIA System, Amersham Biosciences). In all experiments, cells were treated with 100 μM IBMX with or without ANP.

The target in experiment [2] is T2, full-length NPRA (Homo sapiens, UniProt P16066).
T2 sequence (P16066 33-1061): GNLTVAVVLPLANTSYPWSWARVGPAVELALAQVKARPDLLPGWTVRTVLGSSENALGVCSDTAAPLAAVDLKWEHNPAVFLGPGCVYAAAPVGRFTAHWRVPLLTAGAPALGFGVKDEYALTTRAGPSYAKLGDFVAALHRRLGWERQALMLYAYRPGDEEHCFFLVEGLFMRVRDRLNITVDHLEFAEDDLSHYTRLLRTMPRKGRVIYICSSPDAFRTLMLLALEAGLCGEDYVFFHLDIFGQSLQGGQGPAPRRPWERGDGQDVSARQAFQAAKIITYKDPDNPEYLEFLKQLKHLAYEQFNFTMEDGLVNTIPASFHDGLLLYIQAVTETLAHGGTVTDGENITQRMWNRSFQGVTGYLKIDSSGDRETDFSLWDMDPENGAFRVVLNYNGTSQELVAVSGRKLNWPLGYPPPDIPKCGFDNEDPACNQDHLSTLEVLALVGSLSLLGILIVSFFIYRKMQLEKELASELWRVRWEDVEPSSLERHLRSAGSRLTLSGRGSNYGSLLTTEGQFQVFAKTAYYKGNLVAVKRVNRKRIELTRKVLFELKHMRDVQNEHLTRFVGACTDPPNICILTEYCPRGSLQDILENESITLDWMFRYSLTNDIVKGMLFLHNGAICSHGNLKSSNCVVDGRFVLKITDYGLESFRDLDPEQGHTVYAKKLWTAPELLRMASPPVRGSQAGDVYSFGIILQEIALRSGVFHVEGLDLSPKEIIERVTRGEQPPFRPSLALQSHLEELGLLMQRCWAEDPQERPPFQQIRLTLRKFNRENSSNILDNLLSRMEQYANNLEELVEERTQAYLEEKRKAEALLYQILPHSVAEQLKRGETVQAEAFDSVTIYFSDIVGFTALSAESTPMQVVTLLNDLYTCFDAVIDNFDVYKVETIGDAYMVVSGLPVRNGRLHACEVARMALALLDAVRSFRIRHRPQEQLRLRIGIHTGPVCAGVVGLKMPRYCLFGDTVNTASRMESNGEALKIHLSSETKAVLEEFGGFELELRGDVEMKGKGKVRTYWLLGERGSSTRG
Briefly: Association of NPRA fragment with full-length NPRA. It counts as binding. The settings on record: in the presence or absence of activated PKG.

In experiment [3] the test system is cardiac fibroblasts (CFs). Briefly: bFGF-induced α-SMA protein expression in CFs (Western blot). The format is cell-based, rat. The settings on record: fragment expressed; 10 ng/ml FGF 48 hours; 100 nM ANP. As to the method:
NP's ability to inhibit growth factor-induced CF differentiation into myofibroblasts was determined as follows. CFs were transiently transfected with insertless pcDNA3 vector or pcDNA3 encoding sNRF^(806-900) (see Example 7). The transfected CFs were then treated for 48 hours with 10 ng/ml basic fibroblast growth factor (FGF; Sigma-Aldrich #F0291) in the presence or absence of 100 nM ANP. Alpha-smooth muscle actin (α-SMA) protein expression, the principal marker of CF differentiation, was assessed by Western blotting and immunofluorescence microscopy. Vimentin staining was used as a loading control because it is expressed equally in fibroblasts and transdifferentiated myofibroblasts.
Background: A western blot detects proteins with antibodies after separation by electrophoresis.

As for “sNRF^(806-900): intracellular NPRA fragment, residues 806-900, excludes the cyclase-containing domain; shortest fragment observed to associate with PKG”, the cGMP levels result in experiment [1] is given as “significantly increased cGMP levels”. For the same substance, the “association with full-length NPRA” value in experiment [2] was “failed to associate with full-length NPRA”. In addition, the “ANP's inhibitory effect on growth factor-induced α-SMA protein expression” value in experiment [3] is “reversed ANP's inhibitory effect”.
